Values quoted from earlier work, collected in publication PMC4321873.

Target: Glu286 (UniProt position 286, FFGHPEVYIIV)
Assay: kinetics

Cytochrome c oxidase (aa3-type), subunit I (Rhodobacter sphaeroides)
pKa: ∼9.4
